From patent US7282483 (Amgen, dated 2007)

Target: T1, TNF-β (lymphotoxin) (UniProt P01374 35-205, limits assumed)
T1 sequence (looked up): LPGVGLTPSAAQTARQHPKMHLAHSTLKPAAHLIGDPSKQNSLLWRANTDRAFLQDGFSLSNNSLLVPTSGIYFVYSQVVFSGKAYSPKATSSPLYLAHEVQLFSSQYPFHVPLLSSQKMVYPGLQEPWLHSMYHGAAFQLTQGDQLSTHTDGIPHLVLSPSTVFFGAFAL
Assay: preliminary tests, analogous to the competition binding test

B1: TNF-binding protein (TNF-BP), natural, purified from dialyzed urine of uraemia patients (receptor)
chain: DSVCPQGKYIHPQNNSICCTKCHKGTYLYNDCPGPGQDTDCRECESGSFTASENHLRHCLSCSKCRKEMGQVEISSCTVDRDTVCGCRKNQYRHYWSENLFQCFNCSLCLNGTVHLSCQEKQNTVCTCHAGFFLRENECVSCSNCKKSLECTKLCLPQIEN
modifications: glycoprotein; Asn-25 glycosylated (numbering of the TNF-BP cDNA sequence, Leu-1 = first residue after the signal peptide)
notes: Main form (about 80 %) starts at Asp-12; In the preliminary tests it was used as concentrated dialyzed urine or partly purified preparations
affinity for TNF-β relative to its affinity for TNF-α: ~0.02 ratio (affinity for TNF-β / affinity for TNF-α)
